Assays:
Format in all cases: biochemical
IGF-1R = molecular target: T1, IGF-1R (Homo sapiens, UniProt P08069); experiment: Millipore radiometric kinase activity assay, IGF-1R (h)
T1 construct: purchased Millipore (assay service)
Experimental: (§1) A commercial radiometric assay service (Millipore, Billerica, Mass.) was used to test the specificity and potency of peptides containing a coupled transduction domain and therapeutic domain, hereinafter “complete peptides”). In these assays, if the kinase is not inhibited by an inhibitor peptide, a positively charged substrate is phosphorylated with a radiolabeled phosphate group from an ATP.
In a final reaction volume of 25 μL, IGF-1 R (h) (5-10 mU) is incubated with 50 mM Tris pH 7.5, 0.1 mM EGTA, 0.1 mM Na3VO4, 0.1% β-mercaptoethanol, 250 μM […] [SEQ ID NO: 56], 10 mM MnCl2, 10 mM MgAcetate and [γ-^33P-ATP] (specific activity approx. 500 cpm/pmol, concentration as required). The reaction is initiated by the addition of the MgATP mix. After incubation for 40 minutes at room temperature, the reaction is stopped by the addition of 5 μL of a 3% phosphoric acid solution. 10 μL of the reaction is then spotted onto a P30 filtermat and washed three times for 5 minutes in 75 mM phosphoric acid and once in methanol prior to drying and scintillation counting.
(§2) IC50 values for inhibitor peptides were determined using Millipore's IC50Profiler Express service. The IC50 value was estimated from a 10-point curve of one-half log dilutions. For peptides tested for specificity, the concentration of the peptides that inhibited approximately 95% of MK2 activity was chosen to profile against a battery of kinases related to MK2, cell viability, or human disease from MilliporeKinaseProfiler service. In both assays, compounds were supplied in dimethylsulfoxide (DMSO). Every kinase activity measurement was conducted in duplicate.
(§3) Therapeutic inhibitor peptides were assayed for activity against human kinases related to MK2, cell viability, or human disease. The assays were performed using concentrations of therapeutic inhibitor peptides that yielded 2% to 8% of normal MK2 activity. Error is reported as the standard deviation between 2 samples, and “c” is rat AMPK whereas all other kinases used are human kinases.

Src (residues 1-530) = molecular target: T2, Src (residues 1-530) (Homo sapiens, UniProt P12931); experiment: Millipore radiometric kinase activity assay, SRC (1-530) (h)
T2 construct: SRC (1-530) (h) (5-10 mU) is incubated; purchased Millipore (radiometric assay service)
Experimental: as §1
(§4) In a final reaction volume of 25 μL, SRC (1-530) (h) (5-10 mU) is incubated with 8 mM MOPS pH 7.0, 0.2 mM EDTA, 500 mM […] [SEQ ID NO: 58], 10 mM MgAcetate and [γ-^33P-ATP] (specific activity approx. 500 cpm/pmol, concentration as required). The reaction is initiated by the addition of the MgATP mix. After incubation for 40 minutes at room temperature, the reaction is stopped by the addition of 5 μL of a 3% phosphoric acid solution. 10 μL of the reaction is then spotted onto a P30 filtermat and washed three times for 5 minutes in 75 mM phosphoric acid and once in methanol prior to drying and scintillation counting.
as §2, §3

FGFR1 = molecular target: T3, FGFR1 (Homo sapiens, UniProt P11362); experiment: Millipore radiometric kinase activity assay, FGFR1 (h)
T3 construct: purchased Millipore (assay service)
Experimental: as §1
In a final reaction volume of 25 μL, FGFR1 (h) (5-10 mU) is incubated with 8 mM MOPS pH 7.0, 0.2 mM EDTA, 250 μM […] [SEQ ID NO: 56], 10 mM MgAcetate and [γ-^33P-ATP] (specific activity approx. 500 cpm/pmol, concentration as required). The reaction is initiated by the addition of the MgATP mix. After incubation for 40 minutes at room temperature, the reaction is stopped by the addition of 5 μL, of a 3% phosphoric acid solution. 10 μL, of the reaction is then spotted onto a P30 filtermat and washed three times for 5 minutes in 75 mM phosphoric acid and once in methanol prior to drying and scintillation counting.
as §2, §3

KDR = molecular target: T4, KDR (Homo sapiens, UniProt P35968); experiment: Millipore radiometric kinase activity assay, KDR (h)
T4 construct: purchased Millipore (assay service)
Experimental: as §1
In a final reaction volume of 25 μL, KDR (h) (5-10 mU) is incubated with 8 mM MOPS pH 7.0, 0.2 mM EDTA, 0.33 mg/mL myelin basic protein, 10 mM MgAcetate and [γ-^33P-ATP] (specific activity approx. 500 cpm/pmol, concentration as required). The reaction is initiated by the addition of the MgATP mix. After incubation for 40 minutes at room temperature, the reaction is stopped by the addition of 5 μL of a 3% phosphoric acid solution. 10 μL of the reaction is then spotted onto a P30 filtermat and washed three times for 5 minutes in 75 mM phosphoric acid and once in methanol prior to drying and scintillation counting.
as §2, §3

CHK1 = molecular target: T5, CHK1 (Homo sapiens, UniProt O14757); experiment: Millipore radiometric kinase activity assay, CHK1 (h)
T5 construct: purchased Millipore (assay service)
T5 sequence (O14757 1-476): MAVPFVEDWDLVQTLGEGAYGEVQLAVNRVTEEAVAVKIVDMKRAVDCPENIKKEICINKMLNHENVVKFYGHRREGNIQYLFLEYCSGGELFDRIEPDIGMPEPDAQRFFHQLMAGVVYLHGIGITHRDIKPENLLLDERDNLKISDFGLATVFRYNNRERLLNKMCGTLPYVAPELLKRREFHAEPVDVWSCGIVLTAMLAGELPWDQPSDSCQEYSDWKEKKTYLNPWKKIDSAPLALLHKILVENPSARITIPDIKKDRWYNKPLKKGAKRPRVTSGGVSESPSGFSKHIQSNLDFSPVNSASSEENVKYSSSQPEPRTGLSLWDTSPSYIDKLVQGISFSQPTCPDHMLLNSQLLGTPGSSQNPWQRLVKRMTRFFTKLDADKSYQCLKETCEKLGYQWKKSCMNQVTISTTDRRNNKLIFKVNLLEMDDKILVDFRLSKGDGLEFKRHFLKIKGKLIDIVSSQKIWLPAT
Experimental: as §1
as §4, with “CHK1” for “SRC (1-530)”, “200 μM” for “500 mM”, “53],” for “58],”
as §2, §3

T3 sequence (P11362 22-822): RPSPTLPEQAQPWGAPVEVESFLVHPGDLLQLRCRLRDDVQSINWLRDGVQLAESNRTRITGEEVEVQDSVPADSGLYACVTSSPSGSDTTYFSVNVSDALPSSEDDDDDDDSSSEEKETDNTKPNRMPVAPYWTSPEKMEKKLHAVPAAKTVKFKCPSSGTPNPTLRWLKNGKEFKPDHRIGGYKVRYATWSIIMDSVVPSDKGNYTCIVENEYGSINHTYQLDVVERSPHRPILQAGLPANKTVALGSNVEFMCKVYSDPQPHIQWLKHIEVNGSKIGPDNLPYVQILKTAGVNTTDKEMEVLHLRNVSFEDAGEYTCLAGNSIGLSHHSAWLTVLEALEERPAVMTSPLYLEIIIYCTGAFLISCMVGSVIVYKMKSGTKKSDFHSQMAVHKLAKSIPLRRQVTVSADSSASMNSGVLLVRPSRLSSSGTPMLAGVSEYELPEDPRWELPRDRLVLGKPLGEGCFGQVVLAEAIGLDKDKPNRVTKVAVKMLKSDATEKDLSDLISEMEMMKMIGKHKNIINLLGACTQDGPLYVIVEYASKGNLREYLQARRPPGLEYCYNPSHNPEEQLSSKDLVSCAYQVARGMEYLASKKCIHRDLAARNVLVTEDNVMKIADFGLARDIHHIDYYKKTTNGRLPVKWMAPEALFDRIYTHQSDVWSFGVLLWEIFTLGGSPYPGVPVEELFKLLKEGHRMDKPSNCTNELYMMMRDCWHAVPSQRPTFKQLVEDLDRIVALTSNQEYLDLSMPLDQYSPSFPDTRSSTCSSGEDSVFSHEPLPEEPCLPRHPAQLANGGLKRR
T1 sequence (P08069 31-1367): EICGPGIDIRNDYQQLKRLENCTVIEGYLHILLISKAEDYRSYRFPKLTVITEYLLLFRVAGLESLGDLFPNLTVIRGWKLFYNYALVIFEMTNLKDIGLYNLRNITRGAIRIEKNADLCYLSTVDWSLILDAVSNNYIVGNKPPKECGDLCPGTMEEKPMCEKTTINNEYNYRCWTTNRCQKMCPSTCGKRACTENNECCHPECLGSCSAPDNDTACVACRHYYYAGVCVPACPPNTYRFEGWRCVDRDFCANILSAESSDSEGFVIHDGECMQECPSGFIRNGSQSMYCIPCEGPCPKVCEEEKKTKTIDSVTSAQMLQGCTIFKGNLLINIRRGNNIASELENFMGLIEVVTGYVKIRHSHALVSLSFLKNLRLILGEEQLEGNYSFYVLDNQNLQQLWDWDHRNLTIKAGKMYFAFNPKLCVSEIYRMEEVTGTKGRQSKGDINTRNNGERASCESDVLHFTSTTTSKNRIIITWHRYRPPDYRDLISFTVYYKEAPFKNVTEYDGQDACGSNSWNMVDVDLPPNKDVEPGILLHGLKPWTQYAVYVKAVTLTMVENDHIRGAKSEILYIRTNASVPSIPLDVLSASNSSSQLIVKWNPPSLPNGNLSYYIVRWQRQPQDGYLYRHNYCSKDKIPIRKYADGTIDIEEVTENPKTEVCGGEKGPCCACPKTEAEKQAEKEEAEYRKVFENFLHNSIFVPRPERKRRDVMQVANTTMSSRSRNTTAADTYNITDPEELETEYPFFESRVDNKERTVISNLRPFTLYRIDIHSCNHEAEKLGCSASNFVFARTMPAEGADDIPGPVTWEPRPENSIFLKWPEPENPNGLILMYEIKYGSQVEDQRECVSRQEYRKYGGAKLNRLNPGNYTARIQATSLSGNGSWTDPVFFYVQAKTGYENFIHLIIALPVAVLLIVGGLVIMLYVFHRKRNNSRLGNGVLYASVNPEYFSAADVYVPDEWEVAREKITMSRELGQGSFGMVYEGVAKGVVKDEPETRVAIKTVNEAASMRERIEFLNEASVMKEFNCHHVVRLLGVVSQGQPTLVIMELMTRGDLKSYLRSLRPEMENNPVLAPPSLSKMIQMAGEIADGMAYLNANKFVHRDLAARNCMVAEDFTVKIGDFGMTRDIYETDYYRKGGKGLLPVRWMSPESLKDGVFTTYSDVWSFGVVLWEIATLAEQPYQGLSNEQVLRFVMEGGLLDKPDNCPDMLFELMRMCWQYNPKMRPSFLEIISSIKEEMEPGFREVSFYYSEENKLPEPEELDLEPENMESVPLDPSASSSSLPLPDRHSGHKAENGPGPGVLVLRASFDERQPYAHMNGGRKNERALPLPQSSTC
T4 sequence (P35968 20-1356): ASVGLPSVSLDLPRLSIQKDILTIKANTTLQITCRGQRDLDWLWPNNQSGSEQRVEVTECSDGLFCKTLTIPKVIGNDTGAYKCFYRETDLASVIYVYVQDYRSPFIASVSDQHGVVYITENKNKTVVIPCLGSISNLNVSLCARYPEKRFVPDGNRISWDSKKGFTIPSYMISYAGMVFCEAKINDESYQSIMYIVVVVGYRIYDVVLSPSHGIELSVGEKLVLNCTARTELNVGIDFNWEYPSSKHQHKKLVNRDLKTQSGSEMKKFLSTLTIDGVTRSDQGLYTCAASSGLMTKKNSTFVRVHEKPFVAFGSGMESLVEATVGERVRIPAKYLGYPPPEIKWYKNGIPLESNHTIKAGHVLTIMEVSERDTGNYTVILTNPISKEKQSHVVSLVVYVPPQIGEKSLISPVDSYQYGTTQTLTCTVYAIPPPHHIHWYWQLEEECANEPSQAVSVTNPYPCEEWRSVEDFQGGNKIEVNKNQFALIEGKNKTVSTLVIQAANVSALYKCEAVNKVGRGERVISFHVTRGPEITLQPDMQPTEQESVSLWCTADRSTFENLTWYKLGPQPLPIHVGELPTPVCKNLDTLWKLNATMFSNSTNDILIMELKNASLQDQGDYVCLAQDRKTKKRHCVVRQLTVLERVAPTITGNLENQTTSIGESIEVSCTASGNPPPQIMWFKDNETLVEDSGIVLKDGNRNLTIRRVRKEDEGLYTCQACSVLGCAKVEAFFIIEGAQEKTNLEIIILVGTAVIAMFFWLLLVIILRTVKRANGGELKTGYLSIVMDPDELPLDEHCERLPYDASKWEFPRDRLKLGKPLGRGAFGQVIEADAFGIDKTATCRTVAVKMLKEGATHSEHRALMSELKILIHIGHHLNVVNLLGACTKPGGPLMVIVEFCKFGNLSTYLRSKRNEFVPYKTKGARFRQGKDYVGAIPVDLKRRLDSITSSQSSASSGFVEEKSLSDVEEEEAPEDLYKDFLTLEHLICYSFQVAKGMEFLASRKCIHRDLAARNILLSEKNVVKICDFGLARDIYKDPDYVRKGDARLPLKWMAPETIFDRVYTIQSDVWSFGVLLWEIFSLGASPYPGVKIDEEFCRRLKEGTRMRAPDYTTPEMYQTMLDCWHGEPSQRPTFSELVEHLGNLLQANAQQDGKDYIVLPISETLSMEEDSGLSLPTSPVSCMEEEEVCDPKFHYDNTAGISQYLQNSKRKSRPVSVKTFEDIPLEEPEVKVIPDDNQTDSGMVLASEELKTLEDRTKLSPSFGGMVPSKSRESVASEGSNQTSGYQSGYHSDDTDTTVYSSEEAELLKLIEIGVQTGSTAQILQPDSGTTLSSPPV

Sequence | IGF-1R Kinase Activity (%) (+SD %) (IGF-1R; peptide 100 μM) | Src (residues 1-530) Kinase Activity (%) (+SD %) (Src (residues 1-530); peptide 100 μM) | FGFR1 Kinase Activity (%) (+SD %) (FGFR1; peptide 100 μM) | KDR Kinase Activity (%) (+SD %) (KDR; peptide 100 μM) | CHK1 Kinase Activity (%) (+SD %) (CHK1; peptide 100 μM) | IGF-1R Kinase Activity (%) (+SD %) (IGF-1R; peptide 30 μM) | Src (residues 1-530) Kinase Activity (%) (+SD %) (Src (residues 1-530); peptide 30 μM) | FGFR1 Kinase Activity (%) (+SD %) (FGFR1; peptide 30 μM) | KDR Kinase Activity (%) (+SD %) (KDR; peptide 30 μM) | CHK1 Kinase Activity (%) (+SD %) (CHK1; peptide 30 μM)
KAFAKLAARLYRKALARQLGVAA | 76 (12) % | 3 (0) % | 35 (1) % | 56 (4) % | 68 (0) % | – | – | – | – | –
WLRRIKAWLRRIKALNRQLGVAA | 69 (4) % | 5 (1) % | 22 (1) % | 78 (6) % | 54 (6) % | 227 (12) % | 6 (1) % | 27 (1) % | 27 (0) % | 31 (5) %

From patent publication US9327008B2, “Cell-permeant peptide-based inhibitor of kinases” (Purdue Research Foundation, priority 2008, dated 2016)
